In patent publication US20240067747A1 (SHANGHAI HUAOTA BIOPHARMACEUTICAL, published 2024):
Positions count from the first letter of the chain named.

B1: 900725 (humanized anti-CD73 antigen-binding protein) (antibody, V domains shown)
VH: QVQLVQSGAEVKKPGASVKLSCKASGYTFTSYWIHWVRQAPGQGLEWIGMIHPNSGSTYYNEKFKGRATLTVDKSTSTAYMELSSLRSEDTAVYYCARYYGSDYEWYFDVWGQGTTVTVSS
VL: DIQMTQSPSSMSASVGDRVTITCKASQNVRTAVVWYQQKPGKAPKALIYLASNRHTGVPDRFSGSGSGTDFTLTISSLQPEDFATYFCLQHWNYPYTFGQGTKLEIK
B2: 900726 (humanized anti-CD73 antigen-binding protein) (antibody, V domains shown)
VH: B1 VH
VL: B1 VL with M11L, F87Y
B3: 900727 (humanized anti-CD73 antigen-binding protein) (antibody, V domains shown)
VH: B1 VH with L20V, N61A, E62Q, K65Q, A68V, L70I
VL: B1 VL
B4: 900728 (humanized anti-CD73 antigen-binding protein) (antibody, V domains shown)
VH: B1 VH with L20V, K65Q, A68V, L70M
VL: B1 VL with M11L, F87Y
B5: 900567 (human-mouse chimeric anti-CD73 antigen-binding protein expressed from 124A9 variable regions) (antibody, V domains shown)
VH: QVQLQQPGAELVKPGASVKLSCKASGYTFTSYWIHWVKQRPGQGLDWIGMIHPNSGSTYYNEKFKSKATLTVDKSSSTAYMQLSSLTSEDSAVYYCARYYGSDYEWYFDVWGTGTTVTVSS
VL: DIVMTQSQKFMSTSVGDRVSITCKASQNVRTAVVWYQQNPGQSPKALIYLASNRHTGVPDRFTGSGSGTDFTLTISNVHSEDLADYFCLQHWNYPYTFGGGTKLEIK

What was measured:
[1] = target: T1, Mouse CD73/NT5E protein (ACRO Biosystems, item No. CD3-M52H9) (mouse, UniProt Q61503 29-551); assay: SPR, Biacore T200, antibody captured on protein A chip, CD73 as analyte
T1 construct: Bought protein
T1 sequence (looked up): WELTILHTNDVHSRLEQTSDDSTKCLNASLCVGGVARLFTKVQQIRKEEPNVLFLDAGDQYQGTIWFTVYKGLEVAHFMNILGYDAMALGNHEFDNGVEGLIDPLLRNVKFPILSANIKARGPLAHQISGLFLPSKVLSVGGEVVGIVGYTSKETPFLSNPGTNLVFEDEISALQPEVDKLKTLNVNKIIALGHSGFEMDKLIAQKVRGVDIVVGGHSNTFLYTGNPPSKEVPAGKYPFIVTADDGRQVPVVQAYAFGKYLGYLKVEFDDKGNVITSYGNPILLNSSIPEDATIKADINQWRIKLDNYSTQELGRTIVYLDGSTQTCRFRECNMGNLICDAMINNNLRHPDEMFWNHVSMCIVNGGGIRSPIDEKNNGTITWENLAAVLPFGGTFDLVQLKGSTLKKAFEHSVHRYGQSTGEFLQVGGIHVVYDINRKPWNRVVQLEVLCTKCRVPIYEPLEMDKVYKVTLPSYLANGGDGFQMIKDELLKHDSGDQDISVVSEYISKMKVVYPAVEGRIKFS
Experimental: In the tests, the assay buffer HBS-EP+ (pH 7.4) and the protein A chip (manufacturer: GE, item No.: 29-1275-56) were used.
The temperatures of a sample chamber and a flow path were set at 25° C., and the protein A chip respectively captured antigen-binding proteins as ligands and immobilized at about 100 RU. […] After association for 120 s at a flow rate of 30 μL/min, dissociation was carried out for 600 s. Regeneration was then carried out for 60 s with 10 mM Glycine (pH 1.5) at a flow rate of 50 μL/min to implement multi-cycle kinetic detection. A 1:1 binding model was selected for fitting analysis in a Fit local mode to acquire the association rate constant (ka), dissociation rate constant (kd) and dissociation equilibrium rate constant (KD).

[2] = target: T2, human CD73 on the cell surface of CHOK1-huCD73-3F4 cells (Huabo Biopharm) (human, UniProt P21589 27-549); assay: flow cytometry on CHOK1-huCD73-3F4 cells, PE-goat anti-human-Fc
T2 construct: whole, on cells; also called cells expressing human CD73; CD73 on cell membrane
T2 sequence (looked up): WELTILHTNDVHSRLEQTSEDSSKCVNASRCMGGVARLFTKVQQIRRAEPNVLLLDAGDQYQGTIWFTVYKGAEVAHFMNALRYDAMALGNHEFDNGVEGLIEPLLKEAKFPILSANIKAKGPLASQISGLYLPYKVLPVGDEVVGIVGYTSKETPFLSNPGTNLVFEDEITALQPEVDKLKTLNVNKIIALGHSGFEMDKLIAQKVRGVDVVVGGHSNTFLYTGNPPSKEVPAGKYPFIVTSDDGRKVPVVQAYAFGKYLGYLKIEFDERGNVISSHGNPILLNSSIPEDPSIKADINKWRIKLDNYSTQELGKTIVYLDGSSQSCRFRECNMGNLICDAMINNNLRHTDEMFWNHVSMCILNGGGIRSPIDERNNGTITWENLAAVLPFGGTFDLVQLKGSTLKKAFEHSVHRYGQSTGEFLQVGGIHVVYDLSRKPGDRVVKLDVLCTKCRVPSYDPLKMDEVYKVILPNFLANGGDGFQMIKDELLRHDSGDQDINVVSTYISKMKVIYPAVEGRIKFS
Experimental: All antigen-binding proteins were diluted to 30 μg/ml with 1% BSA in PBS solution (1% BSA/PBS) and then 3-fold diluted for 11 gradients. The diluted antigen-binding proteins were added to a 96-well U-shaped plate at 20 μL per well; and a negative control (with 1% BSA/PBS added only) was set up at the same time. The suspension of cells (CHOK1-huCD73-3F4, Huabo Biopharm) expressing human CD73 during the logarithmic growth phase were centrifuged (1000 rpm×5 min) to discard the culture medium; and the cells were resuspended with 1% BSA/PBS until the density of viable cells was 1×10⁶/mL, and were added, at 20 μL (2×10⁴ cells) per well, to the 96-well U-shaped plate with the […] antigen-binding protein to react for 30 min at room temperature. After reaction, the 96-well U-shaped plate was resuspended with 1% BSA/PBS, centrifuged (300 g×3 min) to discard the supernatant, and washed once in such a way. PE-goat anti-human-Fc (Jackson ImmunoResearch, #109-115098) diluted at 1:200 was added to react for 15 min in the dark at room temperature. After reaction, the 96-well U-shaped plate was resuspended with 1% BSA/PBS, centrifuged (300 g×3 min) to discard the supernatant, washed three times in such a way, and finally resuspended with 100 μL of 1% BSA/PBS for each wall; and the fluorescence intensity of a PE channel was detected with a flow cytometer (BD, #Cantoll).

[3] = target: T2, human CD73 on the cell surface of …; assay: cell-based or functional assay

Binder	binding result [1]	EC50 [2] [µg/mL]	EC50 of inhibition of the enzyme activity of CD73 on cell membrane (AMP/ATP, CellTiter-Glo) [3] [µg/mL]
B1	no binding (tested: 50 nM (highest analyte concentration))	–	–
B2	no binding (tested: 50 nM (highest analyte concentration))	–	–
B3	no binding (tested: 50 nM (highest analyte concentration))	–	–
B4	no binding (tested: 50 nM (highest analyte concentration))	–	–
B5	no binding (tested: 50 nM (highest analyte concentration))	0.021	0.0749
